In assay [1] the target is ptau 406-429 (pS416, pS422) (human). Nature of the assay: peptide ELISA, 1 ug/mL IgG. A general note: In an ELISA, binding on a coated surface is turned into a signal by an enzyme label.
Protocol: (§1) Plates were coated in TBS overnight at 4° C. The following day, plates were washed five times with TB S/0.05% TWEEN® (TBS-T) and blocked with 150 IA of TBS-T plus 2.5% BSA (blocking buffer) for 2 hour. Tau peptides were captured on streptavidin-coated plates (Pierce) at a concentration of 0.43 μM in 100 μl of TBS. Tau peptides used to set up ELISA assays were the same used as baits in corresponding sorting experiment. Tau peptide-coated plates were then incubated at RT for 1.5 hours. All plates were then washed five times with TBS/0.05% TWEEN® and blocked with 150 μl and 300 μl (tau peptide plates only) of blocking buffer and incubated at RT for 2 hours. […] Primary antibodies were incubated for 2 hours at RT and washed five times in TBS-T. Finally, goat-anti human IgG Fab or goat anti-mouse HRP (Jackson Labs) was used at 1:2000 and 1:4000, respectively, and incubated for 1 hour at RT. Plates were washed five times in TBS-T and developed with SureBlue Reserve TMB Microwell Peroxidase Substrate (KPL). The reaction was halted by the addition of 50 μl and 100 μl (peptide plates) of TMB Stop Solution (KPL) and the absorbance at 450 nm was measured using an ELISA plate reader. Supernatants with the aforementioned binding activities were subsequently reconfirmed in an independent ELISA experiment.
For another assay, the target named is T1, tau 409-428 (human, N-terminal biotin, not carried by the letters).
T1 peptide: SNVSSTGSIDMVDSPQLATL
The assay can be described thus: peptide ELISA.

The target in another assay is T2, tau 405-423 (human).
T2 peptide: Biotin-PRHLSNVSSTGSIDMVDSP
Nature of the assay: peptide ELISA.

In assay [2] the target is ptau 406-429 (pS416, pS422) (human). The assay can be described thus: peptide ELISA, biotinylated peptide on streptavidin plate, IgG titrated (Example 6).
Protocol: as §1
The target in the next assay is T3, tau 389-441 (human, N-terminal biotin, not carried by the letters).
T3 peptide: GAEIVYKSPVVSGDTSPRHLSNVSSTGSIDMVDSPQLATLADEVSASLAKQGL
The description is as above.

The next assay concerns the target ptau 406-423 (human). Nature of the assay: peptide ELISA.
In a further assay the target is T4, ptau 404-421 (human).
T4 construct: also called ptau 404-421 p414
Nature of the assay: peptide ELISA.

In the next assay the target is ptau 299-323 p305, 316 (human). Nature of the assay: peptide ELISA, biotinylated peptide on streptavidin plate, IgG titrated (Example 14).
ptau 299-323 p305, 316 (human), sequence (main, as listed by the source): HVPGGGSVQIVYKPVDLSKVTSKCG
The target in a further assay is T5, ptau 412-434 (human).
T5 construct: also called ptau 412-434 p422, 427
Nature of the assay: peptide ELISA, 1 ug/mL IgG.

The target in assay [3] is ptau 406-429 (pS416, pS422) (human). The assay can be described thus: peptide ELISA, 1 ug/mL IgG. The source holds these as a separate data set.
The target in a further assay is ptau 412-429 (human). Nature of the assay: peptide ELISA, 1 ug/mL IgG.
Another assay has as its target ptau 404-429 (human). The assay can be described thus: peptide ELISA, 1 ug/mL IgG.
A further assay deals with ptau 228-245 (pS238) (human). The assay can be described thus: peptide ELISA, 1 ug/mL IgG.
Assay [4] concerns the target ptau 221-245 (pT231, pS238) (human). Nature of the assay: peptide ELISA, 1 ug/mL IgG.
Protocol: as §1
The target of assay [5] is ptau 225-245 (pS235, pS238) (human). Nature of the assay: peptide ELISA, 1 ug/mL IgG.
Protocol: as §1
For a further assay, the target named is T6, ptau 48-71 (p64) (human).
T6 construct: also called ptau 48-71 (Ser64)
T6 sequence (main, as listed by the source): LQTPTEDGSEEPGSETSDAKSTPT
The assay can be described thus: peptide ELISA, biotinylated peptide on streptavidin plate, IgG titrated (Example 14).

In a further assay the target is T7, tau 62-81 (human, N-terminal biotin, not carried by the letters).
T7 peptide: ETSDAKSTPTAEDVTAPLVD
The assay can be described thus: peptide ELISA, biotinylated overlapping peptide on streptavidin plate, IgG titrated (Example 9).

A further assay deals with T8, tau 72-91 (human, N-terminal biotin, not carried by the letters).
T8 peptide: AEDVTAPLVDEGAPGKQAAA
The assay is described as above.

The next assay addresses T9, tau 42-61 (human, N-terminal biotin, not carried by the letters).
T9 peptide: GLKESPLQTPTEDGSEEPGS
Described as above.

A further assay concerns the target tau 82-103 (human, N-terminal biotin, not carried by the letters). The assay is described as above.
In the next assay the target is T10, tau 52-71 (A60) (human, N-terminal biotin; not carried in the letters).
T10 construct: G60A
T10 peptide: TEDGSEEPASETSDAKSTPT
The assay can be described thus: alanine-scan peptide ELISA, 1 ug/mL IgG.

In the next assay the target is T11, tau 52-71 (A71) (human, N-terminal biotin on the synthetic peptide; not carried in the letters).
T11 construct: T71A
T11 peptide: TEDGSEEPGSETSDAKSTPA
The assay can be described thus: alanine-scan peptide ELISA, 1 ug/mL IgG.

The next assay has as its target T12, tau 52-71 (A57) (human, N-terminal biotin; not carried in the letters).
T12 construct: E57A
T12 peptide: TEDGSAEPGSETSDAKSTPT
The assay can be described thus: alanine-scan peptide ELISA, 1 ug/mL IgG.

For a further assay, the target named is T13, tau 52-71 (A54) (human, N-terminal biotin, not carried by the letters).
T13 construct: D54A
T13 peptide: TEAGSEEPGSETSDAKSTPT
Nature of the assay: alanine-scan peptide ELISA, 1 ug/mL IgG.

The target of a further assay is T14, tau 52-71 (A70) (human, N-terminal biotin on the synthetic peptide; not carried in the letters).
T14 construct: P70A
T14 peptide: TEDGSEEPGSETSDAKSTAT
Nature of the assay: alanine-scan peptide ELISA, 1 ug/mL IgG.

For a further assay, the target named is T15, tau 52-71 (A63) (human, N-terminal biotin on the synthetic peptide; not carried in the letters).
T15 construct: T63A
T15 peptide: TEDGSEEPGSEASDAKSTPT
Nature of the assay: alanine-scan peptide ELISA, 1 ug/mL IgG.

A further assay deals with T16, tau 52-71 (A59) (human, N-terminal biotin; not carried in the letters).
T16 construct: P59A
T16 peptide: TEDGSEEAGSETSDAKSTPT
Nature of the assay: alanine-scan peptide ELISA, 1 ug/mL IgG.

The target in another assay is T17, tau 52-71 (A55) (human, N-terminal biotin (all tau peptides were synthesized with an amino-terminal biotin group); not carried in the letters).
T17 construct: G55A
T17 peptide: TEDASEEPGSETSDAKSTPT
Nature of the assay: alanine-scan peptide ELISA, 1 ug/mL IgG.

A further assay concerns the target T18, tau 52-71 (A64) (human, N-terminal biotin on the synthetic peptide; not carried in the letters).
T18 construct: S64A
T18 peptide: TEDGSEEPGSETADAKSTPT
Nature of the assay: alanine-scan peptide ELISA, 1 ug/mL IgG.

The next assay addresses T19, tau 52-71 (A69) (human, N-terminal biotin on the synthetic peptide; not carried in the letters).
T19 construct: T69A
T19 peptide: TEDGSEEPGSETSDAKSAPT
The assay can be described thus: alanine-scan peptide ELISA, 1 ug/mL IgG.

The next assay deals with T20, tau 52-71 (A58) (human, N-terminal biotin; not carried in the letters).
T20 construct: E58A
T20 peptide: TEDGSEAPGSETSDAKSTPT
Nature of the assay: alanine-scan peptide ELISA, 1 ug/mL IgG.

A further assay has as its target T21, tau 52-71 (A53) (human, N-terminal biotin, not carried by the letters).
T21 construct: E53A
T21 peptide: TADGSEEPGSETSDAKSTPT
The assay can be described thus: alanine-scan peptide ELISA, 1 ug/mL IgG.

A further assay concerns the target T22, tau 52-71 (A61) (human, N-terminal biotin; not carried in the letters).
T22 construct: S61A
T22 peptide: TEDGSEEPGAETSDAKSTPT
Nature of the assay: alanine-scan peptide ELISA, 1 ug/mL IgG.

A further assay concerns the target T23, tau 52-71 (A52) (human, N-terminal biotin, not carried by the letters).
T23 construct: T52A
T23 peptide: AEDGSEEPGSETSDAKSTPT
Nature of the assay: alanine-scan peptide ELISA, 1 ug/mL IgG.

The next assay concerns the target T24, tau 52-71 (A56) (human, N-terminal biotin; not carried in the letters).
T24 construct: S56A
T24 peptide: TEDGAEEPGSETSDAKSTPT
Nature of the assay: alanine-scan peptide ELISA, 1 ug/mL IgG.

A further assay addresses T25, tau 52-71 (A68) (human, N-terminal biotin on the synthetic peptide; not carried in the letters).
T25 construct: S68A
T25 peptide: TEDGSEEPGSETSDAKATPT
Nature of the assay: alanine-scan peptide ELISA, 1 ug/mL IgG.

The target in the next assay is T26, tau 52-71 (A67) (human, N-terminal biotin on the synthetic peptide; not carried in the letters).
T26 construct: K67A
T26 peptide: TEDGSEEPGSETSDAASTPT
Nature of the assay: alanine-scan peptide ELISA.

For the next assay, the target named is T27, tau 52-71 (A65) (human, N-terminal biotin on the synthetic peptide; not carried in the letters).
T27 construct: D65A
T27 peptide: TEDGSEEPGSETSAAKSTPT
Nature of the assay: alanine-scan peptide ELISA.

The target of a further assay is T28, tau 52-71 (A62) (human, N-terminal biotin; not carried in the letters).
T28 construct: E62A
T28 peptide: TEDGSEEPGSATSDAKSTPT
Nature of the assay: alanine-scan peptide ELISA.

This is an account of results in patent publication US20170152307A1 (Janssen / Centocor, published 2017).

Like-named read-outs stand apart in the source and are kept apart here. Where no end group is shown, it is not given here. The star is where a group is joined. Biotin = O=C1N[C@H]2[C@H](CS[C@H]2CCCCC(=O)*)N1 A value given as a limit tells only on which side of the number the result lay.

tau 82-103 (human, N-terminal biotin, not carried by the letters), sequence (peptide, as listed by the source limits assumed): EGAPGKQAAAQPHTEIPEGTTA
Protocol for ptau 228-245 (pS238): as §1
Protocol for ptau 299-323 p305, 316: (§2) Plates were washed five times with TBS-T followed by the addition of secondary antibody [goat Anti-Human IgG F(ab′)₂ (Jackson Labs) at 1:2000 dilution], diluted in TBS plus 0.25% BSA, and incubated at RT for 1 hour. Following incubation, plates were washed four times in TBS-T and developed with SureBlue Reserve TMB Microwell Peroxidase Substrate (KPL) for approximately 90 seconds. The reaction was immediately halted by the addition of TMB Stop Solution (KPL) and the absorbance at 450 nm was measured using an ELISA plate reader. Each experiment was conducted in triplicate across three different days. Reactivity was considered positive when values were equal to or higher than an OD of 0.4 in the ELISA assay. […] (−) for average of two O.D. 450 nm readings <0.3; (−/+) for >0.5 and <1.0; (+) for >1.0 and <1.5; (++) for >1.5. […] (−) for average of three O.D. 450 nm readings <0.3; (−/+) for >0.5 and <1.0; (+) for >1.0 and <1.5; (++) for >1.5.
(§3) (−) for average of two O.D. 450 nm readings <0.3; (−/+) for >0.5 and <1.0; (+) for >1.0 and <1.5; (++) for >1.5.
Protocol for ptau 404-421: (§4) Briefly, 96-well streptavidin-binding plates (Thermo-Fisher) were coated with 2 μg/ml of tau peptides diluted in TBS and incubated overnight at 4° C. […] Plates were washed five times with TBS-T followed by the addition of secondary antibody [goat Anti-Human IgG F(ab′)₂ (Jackson Labs) at 1:2000 dilution], diluted in TBS plus 0.25% BSA, and incubated at RT for 1 hour. Following incubation, plates were washed four times in TBS-T and developed with SureBlue Reserve TMB Microwell Peroxidase Substrate (KPL) for approximately 90 seconds. The reaction was immediately halted by the addition of TMB Stop Solution (KPL) and the absorbance at 450 nm was measured using an ELISA plate reader. Each experiment was conducted in triplicate across three different days. Reactivity was considered positive when values were equal to or higher than an OD of 0.4 in the ELISA assay. […] (−) for average of two O.D. 450 nm readings <0.3; (−/+) for >0.5 and <1.0; (+) for >1.0 and <1.5; (++) for >1.5. […] (−) for average of three O.D. 450 nm readings <0.3; (−/+) for >0.5 and <1.0; (+) for >1.0 and <1.5; (++) for >1.5.
Protocol for ptau 406-423: as §4
Protocol for ptau 48-71 (p64): as §2, §3
Protocol for tau 389-441: as §1
Protocol for tau 405-423: as §4
Protocol for tau 409-428: as §4
Protocol for tau 42-61: as §4
Protocol for tau 52-71 (A52): as §2
(§5) To further characterize the specificity and amino acid contribution to binding of each of the recover mAbs, their reactivity to tau peptides with each position replaced with Alanine was tested by ELISA. […] (−) for average of two O.D. 450 nm readings <0.3; (−/+) for >0.5 and <1.0; (+) for >1.0 and <1.5; (++) for >1.5.
Protocol for tau 52-71 (A53): as §2, §5
Protocol for tau 52-71 (A54): as §2, §5
Protocol for tau 52-71 (A55): as §2, §5
Protocol for tau 52-71 (A56): as §2, §5
Protocol for tau 52-71 (A57): as §2, §5
Protocol for tau 52-71 (A58): as §2, §5
Protocol for tau 52-71 (A59): as §2, §5
Protocol for tau 52-71 (A60): as §2, §5
Protocol for tau 52-71 (A61): as §2, §5
Protocol for tau 52-71 (A62): as §2, §5
Protocol for tau 52-71 (A63): as §2, §5
Protocol for tau 52-71 (A64): as §2, §5
Protocol for tau 52-71 (A65): as §2, §5
Protocol for tau 52-71 (A67): as §2, §5
Protocol for tau 52-71 (A68): as §2, §5
Protocol for tau 52-71 (A69): as §2, §5
Protocol for tau 52-71 (A70): as §2, §5
Protocol for tau 52-71 (A71): as §2, §5
Protocol for tau 62-81: as §4
Protocol for tau 72-91: as §4
Protocol for tau 82-103: as §4

B1: CBTAU-22.1 (antibody, human IgG1, V domains shown)
VH: QVQLVQSGAEVKKPGAPVKVSCETSGYRFSDYNVHWVRQAPGQGPEWIGRISPNSGGTKYAQKFQGRVTMTRDMSMNTAYMELSGLRSDDTAVYYCVRGHCDGTTCSRAYWGQGTLVTVSS
VL: DVVMTQSPLSLPVTPGEPASISCRSSQSLLHRSGHKYLHWYLQRPGQSPQVLIYLGSNRASGVPDRFSGSGSGTDFTLKISRVEAEDVGLYYCMQTLQTPWTFGQGTKVEIK
notes: recombinant full-length human IgG1
With B1, in assay [1], the OD450 was > 1.5 od. For the same molecule, the binding result is recorded as “no binding (tested: OD450 <0.3 at 2 ug/mL)” in the assay with tau 409-428, “no binding (tested: OD450 <0.3 at 2 ug/mL)” with tau 405-423 and “no binding (tested: 5 µg/mL)” in the assay with tau 389-441. In assay [2], the EC50 (read off the curve) (commonly the concentration giving half of the maximal effect) was ~0.04 µg/mL.

B2: CBTAU-27.1 (antibody, human IgG1, V domains shown)
VH: QVQLVESGPEMRKPGESLKISCKTSGYIFSDYWTAWVRQLPGKGLQWMGIIYSGDSDTRYHPSVQGHVTMSTDSSLTTAYLQWSSLKASDTGIYYCARLDARVDAGWQLDSWGQGTLVTVSS
VL: DIQLTQSPDSLAVSLGERATINCKSSQSVFSRDNNKNYLAWYQHKSGQPPKLLFFWASSRESGVSDRFSGSGSGTDFTLTIDNLQAEDVALYYCQHYFNTPHNFGQGTKLEIK
notes: as for B1
Consider B2, for which the OD450 with ptau 406-423 is < 0.3 od; with ptau 404-421 it was < 0.3 od; with ptau 412-434, 0.5 to 1 od; in assay [3], 0.5 to 1 od; with ptau 412-429 it was 0.5 to 1 od; with ptau 404-429, 0.5 to 1 od. In the assay with ptau 299-323 p305, 316, the “EC50 (read off the curve)” value was ~0.01 µg/mL.

B3: CBTAU-24.1 (antibody, human IgG1, V domains shown)
VH: QVQLVQSGAEVKKPGASVKVSCTASGYTFTGYYLHWVRQAPGQGLEWMGWVNPRSGGTSYPPKFQGRVTMTRDTSINTAYMDLTWLTSDDTAVYYCAVGRIPDVTAFDIWGQGTPVTVSS
VL: DIQMTQSPDSLAVSLGERATINCKSSESLLYDSNNKNYLAWYQQKPGQPPKLLIYWASTRESGVPDRFSGSGSETDFTLTISSLQAEDVAVYHCQQYFSTPWTFGQGTKLEIK
notes: as for B1
Regarding B3, the OD450 (with ptau 228-245 (pS238); in assay [4]; in [5]) was > 1.5 od throughout.

B4: CBTAU-28.1 (antibody, human IgG1, V domains shown)
VH: QVQLQQSGAEVKKPGESLKISCEASGYSFTNYWIGWVRQMPGKGLEWMGIIYPGDSDTRYSPPFQGQVTITADRSITTAYLEWSSLKASDTAMYYCARVGRPSKGGWFDPWGQGTLVTVSS
VL: DIQMTQSPDSLAVSLGERATINCESSQTLLYSSNEKNYLAWYQQKPGQPPKLLISWASTPESGVPDRFSGSGSGTSFTLTISSLQAEDVAVYYCQQYYNSPYTFGQGTRLEIK
notes: as for B1
B4: the “EC50 (read off the curve)” value in the assay with ptau 48-71 (p64) was ~0.2 µg/mL. In addition, the binding result in the assay with tau 62-81 is listed as “no binding (tested: 5 µg/mL)”; with tau 72-91 it was “no binding (tested: 5 µg/mL)”; with tau 42-61 it was “no binding (tested: 5 µg/mL)”; in the assay with tau 82-103, “no binding (tested: 5 µg/mL)”; with tau 52-71 (A60), “binds”; in the assay with tau 52-71 (A71), “binds”. Also, the binding result with tau 52-71 (A57), in the assay with tau 52-71 (A54), with tau 52-71 (A70), with tau 52-71 (A63), in the assay with tau 52-71 (A59) and with tau 52-71 (A55) was “binds” each time. For the same molecule, the binding result with tau 52-71 (A64), with tau 52-71 (A69), with tau 52-71 (A58), in the assay with tau 52-71 (A53), with tau 52-71 (A61) and in the assay with tau 52-71 (A52) was “binds” each time. Moreover, the binding result in the assay with tau 52-71 (A56) is “binds”; with tau 52-71 (A68) it was “binds”; with tau 52-71 (A67) it was “no binding (tested: OD450 <0.3 at 1 ug/mL)”; with tau 52-71 (A65), “no binding (tested: OD450 <0.3 at 1 ug/mL)”; in the assay with tau 52-71 (A62), “no binding (tested: OD450 <0.3 at 1 ug/mL)”.
